Positions count from the first letter of the chain named. Values belong to the binder of their own block, whether it stands above or below them.
How the values were obtained:
[1] = molecular target: T1, WT human CXCL12α (human, UniProt P48061-2 22-89, 15N-labelled in one NMR orientation; FITC in flow cytometry (Fig 6H)); experiment: NMR titration; 1H-15N HSQC, 15N-labelled protein with unlabelled partner (10 μM 15N-CXCL12 with 330 μM Gal-3 CRD; 30 μM 15N-Gal-3 CRD with 500 μM CXCL12; 30 μM 15N-CXCL12 with 500 μM Gal-3 CRD mutants), 20 mM sodium acetate pH 4.5, 4.5 mM lactose, 37°C; details: both partners purified
T1 construct: CXCL12 alpha, human, codon-optimised cDNA, released from the thioredoxin-His fusion by enterokinase; also called CXCL12 FITC; source: E. coli BL21(DE3), from inclusion bodies, purified (HisTrap, Heparin HP, enterokinase cleavage, Mono S); not shown: thioredoxin, N-terminal, cleaved; His tag, N-terminal, cleaved

[2] = molecular target: T1, WT human CXCL12α; experiment: far-Western, overlay or dot blot; solid-phase immunoassay: 100 ng of Gal-3 or Gal-3 CRD variants on nitrocellulose, 120 nM CXCL12 overnight, SA-HRP, densitometry (Appendix Fig S7); details: both partners purified

CXCL12 sequence-averaged Δδ [1]: 0.0073 ppm
B1: Gal‐3 CRD mutant Q220E (domain or fragment, UniProt P17931 108-250, looked up)
chain: GAPAGPLIVPYNLPLPGGVVPRMLITILGTVKPNANRIALDFQRGNDVAFHFNPRFNENNRRVIVCNTKLDNNWGREERQSVFPFESGKPFKIQVLVEPDHFKVAVNDAHLLEYNHRVKKLNEISKLGISGDIDLTSASYTMI
notes: The limits are those printed for the wild-type CRD

binding result [2]: binds
B2: Gal‐3 CRD mutant E185A (domain or fragment, UniProt P17931 108-250, looked up)
chain: B1 chain with E78A, E113Q
notes: as for B1

binding result [2]: binds
B3: Gal‐3 CRD mutant N160A (domain or fragment, UniProt P17931 108-250, looked up)
chain: B1 chain with N53A, E113Q
notes: as for B1

binding result [2]: binds
B4: Gal‐3 CRD mutant N222A (domain or fragment, UniProt P17931 108-250, looked up)
chain: B1 chain with E113Q, N115A
notes: as for B1

CXCL12 sequence-averaged Δδ [1]: 0.0048 ppm
B5: Gal‐3 CRD mutant H217A (domain or fragment, UniProt P17931 108-250, looked up)
chain: B1 chain with H110A, E113Q
notes: as for B1

CXCL12 sequence-averaged Δδ [1]: 0.0036 ppm
B6: Gal‐3 CRD mutant Q220K (domain or fragment, UniProt P17931 108-250, looked up)
chain: B1 chain with E113K
notes: as for B1

— publication PMC7132340 (EMBO Reports, 2020)
